Entries after “also recorded” stand apart in the source; their conditions may differ. Where a name gives a salt, the structure may show the parent alone. Read-outs that look alike come from different tables or passages of the source. Square brackets hold non-standard residues; d marks the D form. Ends that are not written are not given here. Met(O) = CS(=O)CC[C@H](N)C(=O)O
Columns and labels:
[1] = pI values of BSA tryptic peptides; type: physicochemical
[2] = system: OS membrane protein pellet; assay: Protein solubilization efficiencies of solubilizing agents (DC protein assay of supernatant)
Procedure: Bovine retinas obtained from WL Lawson Company (Omaha, Nebr.) were used to prepare the photoreceptor outer segment (OS) by sucrose density ultracentrifugation. All solvents used for bovine OS preparations contained protease inhibitors (1 mM EDTA, 0.2 mM PMSF, 0.7 μg/μL leupeptin, and 0.5 μg/μL pepstatin A) to inhibit protein degradation and 100 μM diethylenetriamine pentaacetic acid (DTPA) to inhibit oxidation.
The solubilized pellet solution was sonicated with a VirSonic 100 ultrasonic cell disrupter (SP Scientific, Gardiner, N.Y.) three times at 4.5 kHz of ultrasonic frequency for 9 seconds with 3-minute intervals between the sonications. The resulting protein extract was centrifuged at 15,000 g for 10 minutes, and the solubilized proteins in the supernatant were quantified using a DC protein assay kit (Bio-Rad, Hercules, Calif.).

porcine trypsin = molecular target: T1, porcine trypsin (Sus scrofa, UniProt P00761); assay: Effect of solubilizing agents on trypsin amidase activity (Ac-Lys-p-nitroaniline hydrolysis, 405 nm); type: biochemical
T1 construct: purchased Promega
Procedure: To measure the amidase activity of 100 nM trypsin, we tracked the hydrolysis of 2 mM Ac-Lys-p-nitro aniline hydrochloride through absorbance increase at 405 nm over 3 min in 100 mM ABC using an ELISA plate reader (Thermo-Fisher Scientific, Waltham, Mass.).

[3] = cited from earlier work

T1 sequence (P00761 9-231): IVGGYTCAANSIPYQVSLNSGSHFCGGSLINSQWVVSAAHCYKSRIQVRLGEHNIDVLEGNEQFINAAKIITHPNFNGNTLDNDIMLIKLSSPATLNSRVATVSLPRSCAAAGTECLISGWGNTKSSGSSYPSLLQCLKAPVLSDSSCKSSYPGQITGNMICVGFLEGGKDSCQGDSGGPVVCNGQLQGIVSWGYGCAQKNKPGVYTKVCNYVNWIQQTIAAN

Row | Molecule | pI [1] | also measured
1 | TCVADESHAGCEK (listed as Homo sapiens) [SEQ ID No: 19, tryptic peptide of BSA] | 4.7 | –
2 | LKPDPNTLCDEFK (listed as Homo sapiens) [SEQ ID No: 12, tryptic peptide of BSA] | 4.6 | –
3 | RHPEYAVSVLLR (listed as Homo sapiens) [SEQ ID No: 9, tryptic peptide of BSA] | 8.8 | –
4 | EYEATLEECCAK (listed as Homo sapiens) [SEQ ID No: 18, tryptic peptide of BSA] | 4.1 | –
5 | NC(N)=O [Urea, urea] | – | Protein amount solubilized [2]: 8.1 ± 3.4 μg/10μ OS membrane preparation; protein solubilized from OS membrane protein pellet [2]: 8.1 µg; trypsin activity retained (porcine trypsin; 2 M agent): approximately 50%; trypsin activity retained (porcine trypsin; 4 M agent): ~20%
6 | N=C(N)N [Gdn-HCl, guanidine hydrochloride] | – | Protein amount solubilized [2]: 7.3 ± 4.1 μg/10μ OS membrane preparation; protein solubilized from OS membrane protein pellet [2]: 7.3 µg; trypsin activity retained (porcine trypsin; 0.1 M agent): 40%; trypsin activity retained (porcine trypsin; 0.25 M agent): 20%
7 | LVNELTEFAK (listed as Homo sapiens) [SEQ ID No: 4, tryptic peptide of BSA] | 4.5 | –
8 | O=C(O)C(F)(F)C(F)(F)C(F)(F)C(F)(F)C(F)(F)C(F)(F)C(F)(F)F [PFOA, perfluorooctanoic acid] | – | Protein amount solubilized ([2]; OS membrane pellet in 100 mM ABC with agent at the concentration printed in the row (25 mM SDS 0.8% w/v, 25 mM PFOA 1% w/v, 4M urea, 4M Gdn-HCl), mean ± SD, triplicate): 47.4 ± 4.4 μg/10μ OS membrane preparation; protein solubilized from OS membrane protein pellet ([2]; text: 100 mM ABC, 1% PFOA, 1% SDS, urea, Gdn-HCl): 47.4 µg; trypsin activity retained (porcine trypsin; 0.5% surfactant, control without agent = 100%): more than 80%; trypsin activity retained (porcine trypsin; PFOA concentrations up to 0.25%, control without agent = 100%): fully enzymatically activity; also recorded: full activity; pKa ([3]; carboxyl group, at infinite dilution / diluted solution, determined experimentally): 3.8; pKa ([3]; other reports): lower than 1
9 | LGEYGFQNALIVR (listed as Homo sapiens) [SEQ ID No: 10, tryptic peptide of BSA] | 6.0 | –
10 | TVMENFVAFVDK (listed as Homo sapiens) [SEQ ID No: 16, tryptic peptide of BSA] | 4.4 | –
11 | ETYGDMADCCEK (listed as Homo sapiens) [SEQ ID No: 21, tryptic peptide of BSA] | 3.9 | –
12 | DAFLGSFLYEYSR (listed as Homo sapiens) [SEQ ID No: 13, tryptic peptide of BSA] | 4.4 | –
13 | KQTALVELLK (listed as Homo sapiens) [SEQ ID No: 6, tryptic peptide of BSA] | 8.6 | –
14 | SLHTLFGDELCK (listed as Homo sapiens) [SEQ ID No: 11, tryptic peptide of BSA] | 5.3 | –
15 | KVPQVSTPTLVEVSR (listed as Homo sapiens) [SEQ ID No:5, tryptic peptide of BSA] | 8.8 | –
16 | AEFVEVTK (listed as Homo sapiens) [SEQ ID No: 7, tryptic peptide of BSA] | 4.5 | –
17 | RHPYFYAPELLYYANK (listed as Homo sapiens) [SEQ ID No: 8, tryptic peptide of BSA] | 8.4 | –
18 | ETYGDM(o)ADCCEK (ETYGD[Met(O)]ADCCEK; cysteine pairing not given here; listed as Homo sapiens) [SEQ ID No: 20, tryptic peptide of BSA] | 3.9 | –
19 | VPQVSTPTLVEVSR (listed as Homo sapiens) [SEQ ID No: 3, tryptic peptide of BSA] | 6.0 | –
20 | YNGVFQECCQAEDK (listed as Homo sapiens) [SEQ ID No: 15, tryptic peptide of BSA] | 4.1 | –
21 | LVTDLTK (listed as Homo sapiens) [SEQ ID No: 1, tryptic peptide of BSA] | 5.8 | –
22 | ECCHGDLLECADDR (listed as Homo sapiens) [SEQ ID No: 17, tryptic peptide of BSA] | 4.1 | –
23 | YIYEIAR (listed as Homo sapiens) [SEQ ID No: 2, tryptic peptide of BSA] | 6.0 | –
24 | M(o)PCTEDYLSLILNR ([Met(O)]PCTEDYLSLILNR; listed as Homo sapiens) [SEQ ID No: 14, tryptic peptide of BSA] | 4.4 | –

— patent US8921515B2, “Methods and compositions of preparation for proteome analysis” (Case Western Reserve University, priority 2011, dated 2014)
